Source: US11147875B2, “Compositions, combinations and related methods for photoimmunotherapy” (priority 2015, dated 2021)

Legend:
BxPC3 cells = assay: Effect of interferon gamma on cell death; type: cell-based; conditions: 0 ng/mL to 3.75 μg/mL, 18 hours
Protocol: BxPC3 cells (#CRL-1687, ATCC, Manassas Va.) were seeded in 96 well black, clear-flat bottom dishes at 5000 cells per well, and placed in at 37° C., 5% CO2 incubator. The following day, the cells were washed once with RPMI 1640 supplemented with 10% FBS and 1% Penicillin/Streptomyocin (complete culture media). The cells were then incubated for 18 hours with complete culture media containing different concentrations of recombinant human Interferon Gamma (IFNgamma) (carrier free) (Cat No: 570202, BioLegend, San Diego, Calif.) ranging from 0 ng/mL to 3.75 μg/mL.
After 18 hours, the media containing different concentrations of interferon gamma was replaced with complete culture media containing 1× CellTox Green (Cat No: G8731, Promega, Madison, Wis.). […] The CellTox Green fluorescence signal was measured at 24.5 hours after light treatment using a fluorescence plate reader. The cells were then lysed with detergent, incubated at 37° C. for 30 minutes, and the CellTox Green fluorescence signal was measured again post lysis. The percent dead cells was calculated by taking the ratio between background (1× CellTox Green in complete culture media without cells) subtracted CellTox Green signal per well prior to and post lysis and multiplying the ratio by 100.

PD-L1 = assay: Effect of interferon gamma on PD-L1 expression, flow cytometry; type: cell-based; conditions: 375 pg/mL, 37.5 ng/mL, 18 hours; BxPC3 cells
Protocol: BxPC3 cells were seeded in 12 well dishes at 145,000 cells per well, and placed at 37° C. in a 5% CO2 incubator. The following day, the cells were washed once with RPMI 1640 supplemented with 10% FBS and 1% Penicillin/Streptomyocin (complete culture media). The cells were then incubated for 18 hours with complete culture media alone, complete culture media containing 375 pg/mL of recombinant human Interferon Gamma (carrier free) (Cat No: 570202, BioLegend, San Diego, Calif.), or complete culture media containing 37.5 ng/mL recombinant human Interferon Gamma (carrier free). After the 18 hour incubation with or without recombinant interferon gamma, the BxPC3 cells were washed one time with complete culture media. […]
After the one hour incubation, the cells were washed three times with phosphate buffer saline (pH 7) and incubated with enzyme free cell dissociation buffer (Catalog No: S-014-C, EMD Millipore, Billerica, Mass.) until cells were detached. After the cells detached, phosphate buffer saline containing 0.5% bovine serum albumin fraction V (Catalog No: 15260-037, ThermoFisher Scientific, Waltham, Mass.) was added to the cells, and the samples were immediately analyzed by flow cytometry for PD-L1 expression based on the fluorescent signal from the IR700 dye of the anti-PD-L1-IRDye 700DX. […]

B1: IFNgamma: recombinant human Interferon Gamma (carrier free) (protein, UniProt P01579 24-161, looked up)
Interferon gamma: QDPYVKEAENLKKYFNAGHSDVADNGTLFLGILKNWKEESDRKIMQSQIVSFYFKLFKNFKDDQSIQKSVETIKEDMNVKFFNSNKKKRDDFEKLTNYSVTDLNVQRKAIHELIQVMAELSPAAKTGKRKRSQMLFRG
For B1, the cell death (BxPC3 cells) was “dose-dependent increase in cell death” and the PD-L1 expression (PD-L1) was “dose-dependent increase in PD-L1 expression”.
